{"source": "patent US20180194839A1", "about": "(Novartis, published 2018)", "key": {"[1]": {"biological_target": "T1, recombinant mouse IL-17F (SEQ ID NO: 84) (mouse, UniProt Q7TNI7 29-161)", "T1 construct": "also called mIL-17F; rmIL-17F", "T1 sequence": "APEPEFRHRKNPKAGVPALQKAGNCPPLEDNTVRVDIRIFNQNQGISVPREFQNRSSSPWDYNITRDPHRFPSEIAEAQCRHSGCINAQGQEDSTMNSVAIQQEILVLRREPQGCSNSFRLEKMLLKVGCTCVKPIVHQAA", "test": "ELISA, coated antigen, Ab 1 µg/ml"}, "[2]": {"biological_target": "T2, recombinant human IL-13 (Novartis) (human, UniProt P35225 35-146, limits assumed)", "T2 construct": "also called huIL-13", "T2 sequence (P35225 35-146 limits assumed)": "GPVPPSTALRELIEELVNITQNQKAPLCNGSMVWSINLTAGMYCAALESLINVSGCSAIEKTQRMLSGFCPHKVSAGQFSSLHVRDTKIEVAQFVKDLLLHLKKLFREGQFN", "test": "ELISA, coated cytokine, Ab 10 µg/ml;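 further: antibodies incubated 3 h at room temperature on the coated wells, binding detected with alkaline phosphatase-conjugated anti-IgG secondary antibodies matching the species of each test antibody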"}, "[3]": {"biological_target": "T3, recombinant human IL-4 (R&D Systems Cat#204-IL/CF) (human, UniProt P05112 25-153)", "T3 construct": "also called huIL-4", "T3 sequence (looked up)": "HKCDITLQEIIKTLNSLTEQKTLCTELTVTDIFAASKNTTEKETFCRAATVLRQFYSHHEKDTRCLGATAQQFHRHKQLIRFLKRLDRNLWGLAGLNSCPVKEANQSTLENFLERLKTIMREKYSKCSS", "test": "ELISA, coated cytokine, Ab 10 µg/ml"}, "[4]": {"biological_target": "T4, recombinant human TGFβ2 (Novartis) (human, UniProt P61812 303-414)", "T4 construct": "also called huTGFβ2", "T4 sequence (looked up)": "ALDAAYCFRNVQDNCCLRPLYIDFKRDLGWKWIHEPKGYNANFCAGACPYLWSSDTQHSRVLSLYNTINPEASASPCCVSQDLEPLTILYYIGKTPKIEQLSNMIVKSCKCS", "test": "ELISA, coated cytokine, Ab 10 µg/ml"}, "[5]": {"biological_target": "T5, recombinant human IFNγ (Roche) (human, UniProt P01579 24-166, limits assumed)", "T5 construct": "also called huIFNγ", "T5 sequence (looked up)": "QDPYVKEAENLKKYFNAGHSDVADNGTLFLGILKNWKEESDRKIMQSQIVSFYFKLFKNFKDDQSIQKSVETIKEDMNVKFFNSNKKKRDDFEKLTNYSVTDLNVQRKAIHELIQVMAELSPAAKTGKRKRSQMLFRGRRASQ", "test": "ELISA, coated cytokine, Ab 10 µg/ml"}, "[6]": {"biological_target": "T6, recombinant human IL-12 (R&D Systems Cat#219-IL-005/CF) (human, UniProt P29459 23-219; P29460 23-328)", "T6 construct": "also called huIL-12", "T6 sequence (looked up) 1": "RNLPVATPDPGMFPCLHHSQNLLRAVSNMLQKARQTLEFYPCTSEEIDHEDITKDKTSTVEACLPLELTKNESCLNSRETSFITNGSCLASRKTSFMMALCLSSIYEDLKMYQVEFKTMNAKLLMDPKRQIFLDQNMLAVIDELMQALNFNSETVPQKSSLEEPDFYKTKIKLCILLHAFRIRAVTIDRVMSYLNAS", "T6 sequence (looked up) 2": "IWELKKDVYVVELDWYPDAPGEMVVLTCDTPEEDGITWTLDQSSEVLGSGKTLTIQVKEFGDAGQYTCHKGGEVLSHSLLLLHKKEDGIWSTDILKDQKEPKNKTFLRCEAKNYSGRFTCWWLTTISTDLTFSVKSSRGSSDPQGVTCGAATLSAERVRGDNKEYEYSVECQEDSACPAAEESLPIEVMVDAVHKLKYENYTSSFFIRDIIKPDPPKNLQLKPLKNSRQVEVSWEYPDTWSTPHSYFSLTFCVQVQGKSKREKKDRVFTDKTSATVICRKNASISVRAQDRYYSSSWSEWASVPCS", "test": "ELISA, coated cytokine, Ab 10 µg/ml"}, "[7]": {"biological_target": "T7, recombinant human IL-23 (R&D Systems Cat#1290-IL-010/CF) (human, UniProt Q9NPF7 20-189; P29460 23-328)", "T7 construct": "also called huIL-23", "T7 sequence (looked up) 1": "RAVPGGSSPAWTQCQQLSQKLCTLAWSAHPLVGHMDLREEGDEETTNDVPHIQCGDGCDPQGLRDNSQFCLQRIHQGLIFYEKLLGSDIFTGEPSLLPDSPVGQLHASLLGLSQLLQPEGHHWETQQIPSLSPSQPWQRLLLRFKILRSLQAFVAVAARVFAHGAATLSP", "T7 sequence (looked up) 2": "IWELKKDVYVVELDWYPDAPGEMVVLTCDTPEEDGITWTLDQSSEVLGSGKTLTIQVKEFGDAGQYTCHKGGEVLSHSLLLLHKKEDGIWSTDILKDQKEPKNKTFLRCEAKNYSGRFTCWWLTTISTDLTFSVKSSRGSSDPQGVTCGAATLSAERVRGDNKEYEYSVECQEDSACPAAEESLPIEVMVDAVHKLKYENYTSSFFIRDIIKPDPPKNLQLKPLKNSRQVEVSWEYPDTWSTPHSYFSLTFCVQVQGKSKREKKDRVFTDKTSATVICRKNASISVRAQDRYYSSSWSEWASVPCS", "test": "ELISA, coated cytokine, Ab 10 µg/ml"}, "[8]": {"biological_target": "T8, recombinant human IL-17A/F heterodimer (human, UniProt Q16552 24-155; Q96PD4 31-163, limits assumed)", "T8 construct": "heterodimer of an IL-17A subunit and an IL-17F subunit; also called huIL-17A/F; rhuIL-17A/F", "T8 sequence (looked up) 1": "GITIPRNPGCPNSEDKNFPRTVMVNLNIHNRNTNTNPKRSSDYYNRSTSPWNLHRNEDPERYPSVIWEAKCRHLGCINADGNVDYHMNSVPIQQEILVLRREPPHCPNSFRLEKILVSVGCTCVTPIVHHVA", "T8 sequence (looked up) 2": "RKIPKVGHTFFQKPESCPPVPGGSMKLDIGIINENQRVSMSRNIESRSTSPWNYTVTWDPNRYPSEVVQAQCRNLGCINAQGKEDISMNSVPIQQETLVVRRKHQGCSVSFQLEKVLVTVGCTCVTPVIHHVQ", "test": "ELISA, coated cytokine, Ab 10 µg/ml"}, "[9]": {"biological_target": "T9, recombinant human IL-8 (R&D Systems Cat#208-IL-010/CF) (human, UniProt P10145 28-99)", "T9 construct": "also called huIL-8", "T9 sequence (looked up)": "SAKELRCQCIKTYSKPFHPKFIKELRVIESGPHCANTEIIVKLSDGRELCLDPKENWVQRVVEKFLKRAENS", "test": "ELISA, coated cytokine, Ab 10 µg/ml"}, "[10]": {"biological_target": "T10, recombinant human IL-17F (SEQ ID NO: 77) (human, UniProt Q96PD4 31-163)", "T10 sequence": "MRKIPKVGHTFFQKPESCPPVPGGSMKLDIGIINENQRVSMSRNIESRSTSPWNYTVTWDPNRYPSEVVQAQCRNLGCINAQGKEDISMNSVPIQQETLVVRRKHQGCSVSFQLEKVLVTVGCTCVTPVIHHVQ", "test": "cell-based or functional assay"}, "[11]": {"biological_target": "T11, recombinant human IL-17A (SEQ ID NO: 76) (human, UniProt Q16552 24-155, limits assumed)", "T11 sequence": "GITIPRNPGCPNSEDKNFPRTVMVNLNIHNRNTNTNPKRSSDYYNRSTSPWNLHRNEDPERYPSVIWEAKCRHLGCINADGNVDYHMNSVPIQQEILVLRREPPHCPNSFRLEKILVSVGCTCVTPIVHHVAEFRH", "test": "cell-based or functional assay"}, "[12]": {"biological_target": "T8, recombinant human IL-17A/F heterodimer", "test": "cell-based or functional assay"}}, "data": [{"binder": "XAB4 (antibody, human IgG1, kappa, V domains shown, also called MB435 N56Q) VH: EVQLVESGGDLVQPGGSLRLSCAASGFTFSSYWMSWVRQAPGKGLEWVANIKQDGSEKYYVDSVKGRFTISRDNAKNSLYLQMNSLRAEDTAVYYCARDRGSLYYWGQGTLVTVSS VL: AIQLTQSPSSLSASVGDRVTITCRPSQGINWELAWYQQKPGKAPKLLIYDASSLEQGVPSRFSGSGSGTDFTLTISSLQPEDFATYYCQQFNSYPLTFGGGTKVEIKR", "values": [{"measurement": "O.D.", "setting": "[1]", "result": 0.098, "unit": "O.D."}, {"measurement": "O.D.", "setting": "[2]", "result": 0.019, "unit": "O.D."}, {"measurement": "O.D.", "setting": "[3]", "result": 0.047, "unit": "O.D."}, {"measurement": "O.D.", "setting": "[4]", "result": 0.018, "unit": "O.D."}, {"measurement": "O.D.", "setting": "[5]", "result": 0.048, "unit": "O.D."}, {"measurement": "O.D.", "setting": "[6]", "result": 0.009, "unit": "O.D."}, {"measurement": "O.D.", "setting": "[7]", "result": -0.022, "unit": "O.D."}, {"measurement": "O.D.", "setting": "[8]", "result": 3.1, "unit": "O.D."}, {"measurement": "O.D.", "setting": "[9]", "result": 0.018, "unit": "O.D."}, {"measurement": "IC50, hu-GRO-alpha secretion by BJ cells; stimulus IL-17F (10 nM) + TNF-α (6 pM)", "setting": "[10]", "result": "> 3000", "unit": "nM"}, {"measurement": "IC50, hu-GRO-alpha secretion by BJ cells; stimulus IL-17F (30 nM)", "setting": "[10]", "result": "> 3000", "unit": "nM"}, {"measurement": "IC50, hu-GRO-alpha secretion by BJ cells; stimulus IL-17A (30 pM) + TNF-α (6 pM)", "setting": "[11]", "result": 0.007, "unit": "nM"}, {"measurement": "IC50, hu-GRO-alpha secretion by BJ cells; stimulus IL-17A (1 nM)", "setting": "[11]", "result": 0.35, "unit": "nM"}, {"measurement": "IC50, hu-GRO-alpha secretion by BJ cells; stimulus IL-17A/F (300 pM) + TNF-α (6 pM)", "setting": "[12]", "result": 0.1, "unit": "nM"}, {"measurement": "IC50, hu-GRO-alpha secretion by BJ cells; stimulus IL-17A/F (3 nM)", "setting": "[12]", "result": 1.11, "unit": "nM"}]}, {"binder": "XAB1 (antibody, human IgG1, kappa, V domains shown, human IgG1/kappa monoclonal antibody; also called parental XAB1; XAB1 IgG) VH: EVQLVESGGDLVQPGGSLRLSCAASGFTFSSYWMSWVRQAPGKGLEWVANIKQDGSEKYYVDSVKGRFTISRDNAKNSLYLQMNSLRAEDTAVYYCARDRGSLYYWGQGTLVTVSS VL: AIQLTQSPSSLSASVGDRVTITCRPSQGIISALAWYQQKPGKAPKLLIYDASSLENGVPSRFSGSGSGTDFTLTISSLQPEDFATYYCQQFNSYPLTFGGGTKVEIKR", "values": [{"measurement": "O.D.", "setting": "[1]", "result": 0.044, "unit": "O.D."}, {"measurement": "O.D.", "setting": "[2]", "result": 0.125, "unit": "O.D."}, {"measurement": "O.D.", "setting": "[3]", "result": 0.057, "unit": "O.D."}, {"measurement": "O.D.", "setting": "[4]", "result": 0.146, "unit": "O.D."}, {"measurement": "O.D.", "setting": "[5]", "result": 0.059, "unit": "O.D."}, {"measurement": "O.D.", "setting": "[6]", "result": -0.097, "unit": "O.D."}, {"measurement": "O.D.", "setting": "[7]", "result": 0.085, "unit": "O.D."}, {"measurement": "O.D.", "setting": "[8]", "result": 2.64, "unit": "O.D."}, {"measurement": "O.D.", "setting": "[9]", "result": 0.058, "unit": "O.D."}, {"measurement": "IC50, hu-GRO-alpha secretion by BJ cells; stimulus IL-17F (10 nM) + TNF-α (6 pM)", "setting": "[10]", "result": "> 3000", "unit": "nM"}, {"measurement": "IC50, hu-GRO-alpha secretion by BJ cells; stimulus IL-17A (30 pM) + TNF-α (6 pM)", "setting": "[11]", "result": 0.72, "unit": "nM"}, {"measurement": "IC50, hu-GRO-alpha secretion by BJ cells; stimulus IL-17A/F (300 pM) + TNF-α (6 pM)", "setting": "[12]", "result": 6.22, "unit": "nM"}]}]}
